Assay results from PMC7377350.

Biological target: T1, CREB B-ZIP domain (UniProt P16220 269-327)
T1 sequence: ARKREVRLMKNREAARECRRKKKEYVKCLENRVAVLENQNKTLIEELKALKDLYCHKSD
Test: EMSA

B1: CREB (CRE) 28-mer (dsDNA)
DNA 1: GTCAGTCAGATGACGTCATATCGGTCAG
DNA 2: CTGACCGATATGACGTCATCTGACTGAC
B1: binds.
